In IntAct's records for PubMed 16367866:

B1: Translocated intimin receptor Tir (Escherichia coli O127:H6 (strain E2348/69 / EPEC)), B7UM99 (parent)
chain: MPIGNLGNNVNGNHLIPPAPPLPSQTDGAARGGTGHLISSTGALGSRSLFSPLRNSMADSVDSRDIPGLPTNPSRLAAATSETCLLGGFEVLHDKGPLDILNTQIGPSAFRVEVQADGTHAAIGEKNGLEVSVTLSPQEWSSLQSIDTEGKNRFVFTGGRGGSGHPMVTVASDIAEARTKILAKLDPDNHGGRQPKDVDTRSVGVGSASGIDDGVVSETHTSTTNSSVRSDPKFWVSVGAIAAGLAGLAATGIAQALALTPEPDDPTTTDPDQAANAAESATKDQLTQEAFKNPENQKVNIDANGNAIPSGELKDDIVEQIAQQAKEAGEVARQQAVESNAQAQQRYEDQHARRQEELQLSSGIGYGLSSALIVAGGIGAGVTTALHRRNQPAEQTTTTTTHTVVQQQTGGNTPAQGGTDATRAEDASLNRRDSQGSVASTHWSDSSSEVVNPYAEVGGARNSLSAHQPEEHIYDEVAADPGYSVIQNFSGSGPVTGRLIGTPGQGIQSTYALLANSGGLRLGMGGLTSGGESAVSSVNAAPTPGPVRFV
partner: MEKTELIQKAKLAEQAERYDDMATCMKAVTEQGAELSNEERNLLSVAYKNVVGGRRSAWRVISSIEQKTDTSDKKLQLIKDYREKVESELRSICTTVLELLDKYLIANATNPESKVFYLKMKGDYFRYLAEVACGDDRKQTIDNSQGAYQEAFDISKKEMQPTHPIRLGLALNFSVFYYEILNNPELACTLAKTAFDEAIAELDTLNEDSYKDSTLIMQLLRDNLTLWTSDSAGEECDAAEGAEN

Variants of: B1
Conditions: with 1433t_human YWHAQ
For S434A, the “effect of a mutation on the interaction” value was “with no effect”.
With S51A the “effect of a mutation on the interaction” value was “with no effect”.
S465A was tested, and the “effect of a mutation on the interaction” value was “with no effect”.
